Assays:
MS2 coat protein [1] = assay: apparent KD of MS2 coat protein, switch OFF state (with FMN for OFF switches, without FMN for ON switches); designed switch direction (-1 OFF switch, 1 ON switch): -1; higher = weaker reporter binding; conditions: FMN input: 0 or 200 uM; Eterna round: R93 (includes R88 designs)
Procedure, shortened: (§1)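 Titration buffer: 100 mM Tris-HCl pH 7.5, 80 mM KCl, 4 mM MgCl2, without or with constant ligand. Designed RNA switches transcribed on-chip from Illumina sequencing clusters received SNAP-549-labelled MS2 coat protein in twofold steps from 0.7 or 1.5 nM to 3 µM. Apparent KD is the median per design of fits to normalised cluster binding curves.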

MS2 coat protein [2] = assay: apparent KD of MS2 coat protein, switch ON state; designed switch direction (-1 OFF switch, 1 ON switch): -1; higher = weaker reporter binding; conditions: FMN input: 0 or 200 uM; Eterna round: R93 (includes R88 designs)
Procedure, shortened: as §1

With “CUCUAGUGAGGAUAUGGAAGAAAAGAAAAGAAAGAAAAGAACCAGAAGGCACAUGAGGAUCACCCAUGUAAGAA [EteRNA is fun!]” the “apparent KD of MS2 coat protein” value (MS2 coat protein [1]) was 66 nM and the “apparent KD of MS2 coat protein” value (MS2 coat protein [2]) was 47.7 nM.
For “CUCUUGUAAGGAUAUGACUACAUAAAAAAAAAAAAAUGUAGUCAGAAGGUACAUGAGGAUCACCCAUGUACAAA [Brourd - Exclusion 4 - Sub 1]”, the “apparent KD of MS2 coat protein” value (MS2 coat protein [1]) was 36 nM and the “apparent KD of MS2 coat protein” value (MS2 coat protein [2]) was 24.5 nM.
For “CUCUUGUCAGGAUAUUCAAGAAAAGAAGAGAAAGAAAAGAAGAAGAAGGGACAUGAGGAUCACCCAUGUAAGAA [EteRNA is fun!]”, the “apparent KD of MS2 coat protein” value (MS2 coat protein [1]) was 67.2 nM and the “apparent KD of MS2 coat protein” value (MS2 coat protein [2]) was 52.4 nM.
With “CUCUUGUGAGGAUAUAGAAGAAAAGAAAAGAAAGAAAAGAACUAGAAGGCACAUGAGGAUCACCCAUGUAAGAA [EteRNA is fun!]” the “apparent KD of MS2 coat protein” value (MS2 coat protein [1]) was 67.7 nM and the “apparent KD of MS2 coat protein” value (MS2 coat protein [2]) was 38.7 nM.
For “CUCUUGUGAGGAUAUCAAAGAAAAGAAGAGAAAGAAAAGAAUGAGAAGGCACAUGAGGAUCACCCAUGUAAGAA [EteRNA is fun!]”, the “apparent KD of MS2 coat protein” value (MS2 coat protein [1]) was 59.5 nM and the “apparent KD of MS2 coat protein” value (MS2 coat protein [2]) was 28.9 nM.
In the case of “CUGGUGUCAGGAUAUGCAUAGCAGUGACCAAAACCCGGUCAGCAGAAGGGACAUGAGGAUCACCCAUGUUAAAG [Alatele]”, the “apparent KD of MS2 coat protein” value (MS2 coat protein [1]) is reported as 57.7 nM and the “apparent KD of MS2 coat protein” value (MS2 coat protein [2]) is reported as 22.3 nM.
In the case of “CUUAAGUCAGGAUAUGUCAAAAGUCACAAAAGUGACAAAAGACAGAAGGGACAUGAGGAUCACCCAUGUAAAAA [Starry Exclusion 4.5 (starryjess round 1 mod)]”, the “apparent KD of MS2 coat protein” value (MS2 coat protein [1]) is reported as 139 nM and the “apparent KD of MS2 coat protein” value (MS2 coat protein [2]) is reported as 78.3 nM.
With “CUUGUGUGAGGAUAUGUAAGAUGAAUAAGCAGUUCUAAAAGGCAGAAGGCACAUGAGGAUCACCCAUGUAAAAU [Sodirexe]” the “apparent KD of MS2 coat protein” value (MS2 coat protein [1]) was 16.1 nM and the “apparent KD of MS2 coat protein” value (MS2 coat protein [2]) was 61.3 nM.
“GAAAAACAUGAGGAUCACCCAUGUCAGGAUAUGCAGAAAAAGAAAAAAAGAAAAGAAAGUAGAAGGGACAAAAG [Mat - Same state - Mayanna Mod - D106]” was tested, and the “apparent KD of MS2 coat protein” value (MS2 coat protein [1]) was 28.6 nM and the “apparent KD of MS2 coat protein” value (MS2 coat protein [2]) was 29.4 nM.
“GAAAACAUAGGAUAUACAUGAGGAUCACCCAUGUUAAAAUAAAGAAAGGGAGAAAUAAGUAGAAGGAUGAAAAA [Mat - Mod of Meechl]” was tested, and the “apparent KD of MS2 coat protein” value (MS2 coat protein [1]) was 29.8 nM and the “apparent KD of MS2 coat protein” value (MS2 coat protein [2]) was 25.6 nM.
In the case of “GAAAAGUCAGGAUAUAUAGGAAAAAUAAAAAAAAUAAAACUAUAGAAGGGACAUGAGGAUCACCCAUGUUAAAG [Mat - Exclusion 4 - Mayanna - D132]”, the “apparent KD of MS2 coat protein” value (MS2 coat protein [1]) is reported as 25.5 nM and the “apparent KD of MS2 coat protein” value (MS2 coat protein [2]) is reported as 44.5 nM.
“GAAAAGUCAGGAUAUGUGGAAAAAAUAAAAAAAAUAAAAACACAGAAGGGACAUGAGGAUCACCCAUGUAAAAA [Mat - Exclusion 4 - Mayanna - D140]” was tested, and the “apparent KD of MS2 coat protein” value (MS2 coat protein [1]) was 39 nM and the “apparent KD of MS2 coat protein” value (MS2 coat protein [2]) was 68.3 nM.
With “GAAAAGUGAGGAUAUGUCAAAAGUCACAAAAGUGACAAAAGACAGAAGGCACAUGAGGAUCACCCAUGUGAAAA [Mat - Exaclusion 4 - Eli mod - D55]” the “apparent KD of MS2 coat protein” value (MS2 coat protein [1]) was 43.8 nM and the “apparent KD of MS2 coat protein” value (MS2 coat protein [2]) was 24.2 nM.
For “GAAAAGUGAGGAUAUGUCAAAAGUCACAAAAGUGACAAAAGACAGAAGGCACAUGAGGAUCACCCAUGUGAAAG [Mat - Exaclusion 4 - Eli mod - D54]”, the “apparent KD of MS2 coat protein” value (MS2 coat protein [1]) was 28.4 nM and the “apparent KD of MS2 coat protein” value (MS2 coat protein [2]) was 24.7 nM.
In the case of “GAAAAUUGAGGAUAUACGAACAUGUCAAAAGACGUGAAGGGACAUGAGGAUCACCCAUGUAGAAGGCGAAAAAG [Mat - Exclusion 2 - JL mod - D93]”, the “apparent KD of MS2 coat protein” value (MS2 coat protein [1]) is reported as 12.3 nM and the “apparent KD of MS2 coat protein” value (MS2 coat protein [2]) is reported as 32 nM.
For “GAAACACAUGAGGAUCACCCAUGUCAGGAUAUGUAGAUAAAAAGAAAAUAAAAUAAAAGCAGAAGGGACAAAAG [Mat - Same state - Mayanna Mod - D104]”, the “apparent KD of MS2 coat protein” value (MS2 coat protein [1]) was 29.4 nM and the “apparent KD of MS2 coat protein” value (MS2 coat protein [2]) was 30.2 nM.
“GAAAGGGCAGGAUAUGCAGAGAGAGAGAGAGAAAAAAAAAAACAUGAGGAUCACCCAUGUAGAAGGGCCGAAAG [salish99-ex2-05]” was tested, and the “apparent KD of MS2 coat protein” value (MS2 coat protein [1]) was 32.2 nM and the “apparent KD of MS2 coat protein” value (MS2 coat protein [2]) was 42.4 nM.
With “GAUAGUGAAGGAUAUACUGGAGGAGUGCGAUAGAAGCAAGAACAUGAGGAUCACCCAUGUAGAAGGUCAGAAGU [JR_Exc002_Sub1224]” the “apparent KD of MS2 coat protein” value (MS2 coat protein [1]) was 23.2 nM and the “apparent KD of MS2 coat protein” value (MS2 coat protein [2]) was 25.5 nM.
For “GAUCCACAUGAGGAUCACCCAUGUGAGGAUAUCGUGCAGAAAAAAAAAAAAAACUGCACGAGAAGGCACAUGGG”, the “apparent KD of MS2 coat protein” value (MS2 coat protein [1]) was 13 nM and the “apparent KD of MS2 coat protein” value (MS2 coat protein [2]) was 19.4 nM.
In the case of “GCUCAGUAAGGAUAUUAAUGGCGCUGUUAUUCAGCACCAGCUGAGAAGGUACAUGAGGAUCACCCAUGUGGUGA [Berion]”, the “apparent KD of MS2 coat protein” value (MS2 coat protein [1]) is reported as 216 nM and the “apparent KD of MS2 coat protein” value (MS2 coat protein [2]) is reported as 240 nM.
In the case of “GCUUGCGAAGGAUAUACAUGAGGAUCACCCAUGUGAGAGAAAAAAGUGAGAAAGAAAAGUAGAAGGUCGUGAGG [salish99-ex3-95]”, the “apparent KD of MS2 coat protein” value (MS2 coat protein [1]) is reported as 72.8 nM and the “apparent KD of MS2 coat protein” value (MS2 coat protein [2]) is reported as 28.3 nM.
In the case of “GCUUGGCUAGGAUAUACAUGAGGAUCACCCAUGUGAGAGAAAAAAGUGAGAAAGAAAAGUAGAAGGAGUUGAGG [salish99-ex3-82]”, the “apparent KD of MS2 coat protein” value (MS2 coat protein [1]) is reported as 39.7 nM and the “apparent KD of MS2 coat protein” value (MS2 coat protein [2]) is reported as 46.2 nM.
With “GGAAAACAUGAGGAUCACCCAUGUAAGGAUAUGCUAAGGAAGGAAAAAAACCCACCAGGCAGAAGGUACUAAAG [Janelle Amethyst 18 Mod 4 - Jieux - Exclusion 1]” the “apparent KD of MS2 coat protein” value (MS2 coat protein [1]) was 47.2 nM and the “apparent KD of MS2 coat protein” value (MS2 coat protein [2]) was 23.1 nM.
With “GGAAAACAUGAGGAUCACCCAUGUGAGGAUAUGCAGGAUAUAGAAGGAAAAAAAAAAAGCAGAAGGUACGAAGG [salish99-ex1-17]” the “apparent KD of MS2 coat protein” value (MS2 coat protein [1]) was 36.3 nM and the “apparent KD of MS2 coat protein” value (MS2 coat protein [2]) was 22.3 nM.
For “GGAGGCCAAGGAUAUACAUGAGGAUCACCCAUGUGAGAGAAAAAAGUGAGAAAGAAAAGUAGAAGGUGGUUUCG [salish99-ex3-129]”, the “apparent KD of MS2 coat protein” value (MS2 coat protein [1]) was 131 nM and the “apparent KD of MS2 coat protein” value (MS2 coat protein [2]) was 65.4 nM.
In the case of “GGCUGGCGAGGAUAUACAUGAGGAUCACCCAUGUGAGAGAAAAAAGUGAGAAAGAAAAGUAGAAGGCGCUGGCG [salish99-ex3-55]”, the “apparent KD of MS2 coat protein” value (MS2 coat protein [1]) is reported as 81.4 nM and the “apparent KD of MS2 coat protein” value (MS2 coat protein [2]) is reported as 34.1 nM.
For “GGGUAACAUGAGGAUCACCCAUGUGAGGAUAUCCUAGGGAUGGAAGCCAGGCCAAAAAGGAGAAGGUACUAAAG [Janelle Amethyst 18 Mod 17 - Jieux - Exclusion 1]”, the “apparent KD of MS2 coat protein” value (MS2 coat protein [1]) was 72.4 nM and the “apparent KD of MS2 coat protein” value (MS2 coat protein [2]) was 54.2 nM.
With “GGGUAACAUGAGGAUCACCCAUGUGAGGAUAUGCUAGGGAUGGAAGCCAGGCCAAAAAGCAGAAGGUACUAAAG [Janelle Amethyst 18 Mod 16 - Jieux - Exclusion 1]” the “apparent KD of MS2 coat protein” value (MS2 coat protein [1]) was 34.3 nM and the “apparent KD of MS2 coat protein” value (MS2 coat protein [2]) was 23.6 nM.
With “GGUUGAGAAGGAUAUACAUGAGGAUCACCCAUGUGAGAGAAAAAAGUGAGAAAGAAAAGUAGAAGGUCUUGACG [salish99-ex3-63]” the “apparent KD of MS2 coat protein” value (MS2 coat protein [1]) was 95.9 nM and the “apparent KD of MS2 coat protein” value (MS2 coat protein [2]) was 29 nM.

From the supplement of paper PMC9170038
